Measured values published in paper PMC4318144 (Genes & Development, 2015).

Molecular target: the molecule itself
Experiment: cryo-EM structure

B1: Dark protein, full-length (residues 1–1440) (natural protein, D. melanogaster, UniProt Q7KLI1 1-1440, looked up)
chain: MDFETGEHQYQYKDILSVFEDAFVDNFDCKDVQDMPKSILSKEEIDHIIMSKDAVSGTLRLFWTLLSKQEEMVQKFVEEVLRINYKFLMSPIKTEQRQPSMMTRMYIEQRDRLYNDNQVFAKYNVSRLQPYLKLRQALLELRPAKNVLIDGVLGSGKTWVALDVCLSYKVQCKMDFKIFWLNLKNCNSPETVLEMLQKLLYQIDPNWTSRSDHSSNIKLRIHSIQAELRRLLKSKPYENCLLVLLNVQNAKAWNAFNLSCKILLTTRFKQVTDFLSAATTTHISLDHHSMTLTPDEVKSLLLKYLDCRPQDLPREVLTTNPRRLSIIAESIRDGLATWDNWKHVNCDKLTTIIESSLNVLEPAEYRKMFDRLSVFPPSAHIPTILLSLIWFDVIKSDVMVVVNKLHKYSLVEKQPKESTISIPSIYLELKVKLENEYALHRSIVDHYNIPKTFDSDDLIPPYLDQYFYSHIGHHLKNIEHPERMTLFRMVFLDFRFLEQKIRHDSTAWNASGSILNTLQQLKFYKPYICDNDPKYERLVNAILDFLPKIEENLICSKYTDLLRIALMAEDEAIFEEAHKQVQRFDDRVWFTNHGRFHQHRQIINLGDNEGRHAVYLHNDFCLIALASGQILLTDVSLEGEDTYLLRDESDSSDILRMAVFNQQKHLITLHCNGSVKLWSLWPDCPGRRHSGGSKQQLVNSVVKRFIGSYANLKIVAFYLNEDAGLPEANIQLHVAFINGDVSILNWDEQDQEFKLSHVPVLKTMQSGIRCFVQVLKRYYVVCTSNCTLTVWDLTNGSSNTLELHVFNVENDTPLALDVFDERSKTATVLLIFKYSVWRLNFLPGLSVSLQSEAVQLPEGSFITCGKRSTDGRYLLLGTSEGLIVYDLKISDPVLRSNVSEHIECVDIYELFDPVYKYIVLCGAKGKQVVHVHTLRSVSGSNSHQNREIAWVHSADEISVMTKACLEPNVYLRSLMDMTRERTQLLAVDSKERIHLIKPAISRISEWSTITPTHAASNCKINAISAFNDEQIFVGYVDGVIIDVIHDTALPQQFIEEPIDYLKQVSPNILVASAHSAQKTVIFQLEKIDPLQPNDQWPLMMDVSTKYASLQEGQYIILFSDHGVCHLDIANPSAFVKPKDSEEYIVGFDLKNSLLFLAYENNIIDVFRLIFSCNQLRYEQICEEEIAQKAKISYLVATDDGTMLAMGFENGTLELFAVENRKVQLIYSIEEVHEHCIRQLLFSPCKLLLISCAEQLCFWNVTHMRNNQLEREQKRRRSRRHKQHSVTQEDAVDAAPIAADIDVDVTFVADEFHPVNRGTAELWRNKRGNAIRPELLACVKFVGNEARQFFTDAHFSHFYAIDDEGVYYHLQLLELSRLQPPPDPVTLDIANQYEDLKNLRILDSPLMQDSDSEGADVVGNLVLEKNGGVARATPILEEASS
stoichiometry N: 16
